Experimental data from the RNAGym collection of RNA variant scans (doi:10.7554/elife.80360).

B1: CPEB3 Ribozyme (parent)
chain: GGGGGCCACAGCAGAAGCGUUCACGUCGCGGCCCCUGUCAGAUUCUGGUGAAUCUGCGAAUUCUGCUGU

Variants of: B1
Experiment: self-cleavage, relative activity (ratio to wild type); higher = more cleavage; co-transcriptional

Variant | self-cleavage
C32G U67A | 0.525
C32G U67C | 0.536
C32G U67G | 0.584
G31C U36A | 0.155
G31C U36G | 0.475
G31C U36C | 0.203
C32A U49A | 0.871
C32A U49C | 0.704
G31U G65C | 0.358
G31U G65U | 0.352
C32A U53G | 0.419
C32A U53C | 0.455
C32G G48A | 0.62
C32G G48U | 0.562
C32A C54G | 0.333
C32A C54U | 0.803
C32A C54A | 0.328
C32A G41A | 0.344
C32A G41U | 0.362
C32U G47U | 1.01
C32A | 0.866
C32G | 0.584
C32U | 0.993
C32U A60G | 0.906

Variant | self-cleavage
G31C U67A | 0.277
G31C U67G | 0.355
C32G U64G | 0.253
C32G U64A | 0.235
C32A A52U | 0.645
C32A A52C | 0.374
G31U A42C | 0.458
G31U A42G | 0.692
C32G C63A | 0.3
C32A U43A | 0.345
C32A U43C | 0.441
C32U C45G | 0.975
C32U C45A | 0.983
C32U C45U | 1.01
C32A A51G | 0.521
C32G U61A | 0.292
C32A C35A | 0.26
C32A U46A | 0.574
C32A U46C | 0.776
C32A U46G | 0.729
G31U U62C | 0.226
G31U U62G | 0.274
C32A C63U | 0.772
C32A C63G | 0.344

Variant | self-cleavage
C32G A59U | 0.206
C32G A59G | 0.586
G31U G58C | 0.611
C32U G37U | 0.292
G31U U67A | 0.89
G31U U67G | 0.919
C32A C57U | 0.25
C32A C57G | 0.27
G31C G58A | 0.21
C32U U38C | 0.955
G31U C34G | 0.237
G31U C34A | 0.232
G31C C66U | 0.264
G31C C66G | 0.155
G31C C66A | 0.252
C32G G58A | 0.44
C32G A52C | 0.435
C32A C39U | 0.388
C32A C39A | 0.434
G31C U53A | 0.208
C32U A51C | 0.964
C32A G48U | 0.901
C32A G48A | 0.875
C32A G48C | 0.862

Variant | self-cleavage
C32U C35G | 0.349
C32U U43A | 0.933
C32U U43G | 0.963
C32U U43C | 0.947
G31U U38A | 0.537
G31U U38G | 0.124
G31U U38C | 0.505
G31U G47A | 0.787
G31U G47U | 0.795
G31U G47C | 0.684
G31U U49A | 0.71
G31U U49C | 0.731
C32A U61C | 0.365
C32A U61A | 0.406
C32A U61G | 0.421
C32U G56U | 0.971
C32U G56A | 0.94
G31U G37C | 0.189
G31U G37U | 0.163
G31C U43C | 0.289
G31C U43G | 0.276
C32A G47A | 0.877
C32A G47C | 0.869
C32G U36G | 0.191

Variant | self-cleavage
G31U C33U | 0.4
G31U C33G | 0.2
G31U A52G | 0.775
G31U A52U | 0.655
C32U G68U | 1.02
C32U G68A | 0.977
C32U G68C | 1.02
C32A A59C | 0.372
C32A A59G | 0.61
C32A U69C | 1.03
C32U C34A | 0.541
G31U U44C | 0.618
C32G U69C | 0.839
C32G U46G | 0.522
C32G U46A | 0.492
C32G U44G | 0.426
C32G U44A | 0.385
G31C C34G | 0.382
G31C C34U | 0.281
G31U U55G | 0.274
G31U U55C | 0.459
G31U C66U | 0.732
G31U C66A | 0.489
G31U C66G | 0.415

Variant | self-cleavage
G31U C57U | 0.229
G31U C57A | 0.208
C32G G37C | 0.184
C32G G37U | 0.149
C32G G37A | 0.195
C32A G37C | 0.336
C32U G50A | 0.995
C32U G50U | 0.978
G31U C54U | 0.729
G31U C54G | 0.33
C32U C54U | 0.966
C32U C54A | 0.861
G31C G65A | 0.147
G31C G65U | 0.136
G31C U44A | 0.257
G31C U44G | 0.242
G31U U61A | 0.289
G31U U61G | 0.351
C32G U62A | 0.26
C32G U62G | 0.271
C32G U62C | 0.306
G31C C45G | 0.245
G31C C45A | 0.25
G31C C45U | 0.263

Variant | self-cleavage
C32G G68C | 0.768
C32G G68A | 0.808
G31C G56C | 0.139
G31C G56U | 0.164
G31C G56A | 0.2
G31U A51G | 0.636
G31U U46G | 0.638
G31U U46A | 0.785
G31U U46C | 0.725
C32A G56U | 0.683
C32A G56A | 0.674
C32U A42U | 0.933
C32U A42G | 0.914
C32U A42C | 0.961
G31C C39U | 0.197
G31C C39G | 0.235
G31C C39A | 0.186
G31C U49G | 0.175
G31C U49C | 0.178
G31C U49A | 0.286
C32U C33A | 0.593
C32U C33U | 0.861
C32G U38A | 0.443
C32G U38C | 0.235

Variant | self-cleavage
C32G U38G | 0.207
G31C U46C | 0.164
G31C U46A | 0.263
G31C U46G | 0.205
C32U G41A | 0.845
C32G G41C | 0.267
C32G G41A | 0.35
G31U A60U | 0.229
G31U A60G | 0.277
G31U C39A | 0.319
G31U C39U | 0.357
G31U C39G | 0.437
G31U U53G | 0.411
G31U U53A | 0.545
G31C G50C | 0.245
G31C G50U | 0.238
C32A G50C | 0.716
C32A G50A | 0.693
G31C U38C | 0.191
G31C U38G | 0.191
C32A U55A | 0.622
C32A U55C | 0.393
C32A U55G | 0.451
C32G U53A | 0.266

Variant | self-cleavage
C32A G68U | 1.01
C32A G68A | 0.994
C32G U55C | 0.258
C32G U55G | 0.218
G31U G48C | 0.812
G31U G48U | 0.797
G31U G48A | 0.756
G31C G47A | 0.249
G31C G47C | 0.271
G31C G47U | 0.239
C32A U62C | 0.339
C32U U44A | 0.948
C32G U43A | 0.238
C32G U43C | 0.364
C32G U43G | 0.331
C32U C66G | 0.923
C32U C66U | 1
C32U C66A | 0.893
G31C C35A | 0.241
G31C C35U | 0.189
G31U C32U | 0.32
G31U C32G | 0.177
C32U C63A | 0.886
C32U C63U | 0.956

Variant | self-cleavage
C32G U49C | 0.543
C32G U49A | 0.658
C32G C34U | 0.363
G31U A59U | 0.334
C32G C33G | 0.179
C32G C33A | 0.309
C32G C33U | 0.287
C32U A52G | 0.967
C32U A52U | 0.987
G31C U64C | 0.273
G31C U64A | 0.111
C32A U36C | 0.593
C32A U36A | 0.275
G31C C63U | 0.251
G31C C63G | 0.133
G31C C63A | 0.233
G31U C63U | 0.602
G31U U36A | 0.189
G31U U36G | 0.738
C32G G50U | 0.503
C32G G50C | 0.299
G31U G68A | 0.957
G31U | 0.782
C32A C45G | 0.667

Variant | self-cleavage
C32U G65C | 0.778
C32U G65A | 0.988
G31U U43G | 0.454
G31U U43A | 0.443
G31U U43C | 0.393
C32G G65A | 0.288
C32G G65C | 0.224
C32A A40C | 0.321
C32A A40G | 0.711
C32A A40U | 0.376
G31C U61C | 0.188
G31C U61G | 0.158
G31C U61A | 0.179
C32G C35G | 0.303
C32G C35A | 0.143
C32U A59C | 0.687
C32U A59U | 0.785
C32U A59G | 0.954
G31C C54G | 0.183
G31C C54A | 0.189
C32G C57G | 0.263
G31U U69C | 1.02
G31U U69A | 0.876
C32A C33U | 0.231

Variant | self-cleavage
C32A C33A | 0.308
C32G G47A | 0.673
C32G G47C | 0.683
C32A U64C | 0.499
C32A U64A | 0.519
C32A U64G | 0.726
G31U U64A | 0.446
G31U U64C | 0.427
C32A A42C | 0.342
C32A A42U | 0.504
C32U U36G | 0.297
G31C G41C | 0.173
G31C G41A | 0.201
G31C G68C | 0.414
G31C G68U | 0.392
G31U G41U | 0.398
G31U C35G | 0.252
C32A G65A | 0.638
G31U G50U | 0.754
G31U G50C | 0.742
C32U C57G | 0.335
C32U C57U | 0.327
G31U C45G | 0.559
G31U C45A | 0.662

Variant | self-cleavage
G31C C57G | 0.151
C32U U46G | 0.951
C32U U46A | 1
C32U U46C | 1
G31U A40G | 0.457
G31U A40C | 0.254
C32G C39U | 0.332
C32A U67G | 0.936
C32A U67A | 0.956
C32A U67C | 0.882
C32A G58A | 0.693
C32A G58C | 0.841
G31C U69G | 0.444
G31C U55A | 0.188
G31C U55C | 0.225
C32G A60G | 0.267
G31C U62G | 0.228
G31U G56A | 0.386
G31U G56U | 0.568
G31C G48A | 0.24
G31C G48C | 0.222
G31C G48U | 0.247
C32G A51C | 0.353
C32G A51U | 0.419

Variant | self-cleavage
C32A A60U | 0.257
C32A A60C | 0.27
C32A U44G | 0.469
C32A U44A | 0.357
C32U G58A | 0.983
G31C G37A | 0.19
G31C G37U | 0.203
G31C G37C | 0.217
C32U C39U | 0.937
C32A C34U | 0.362
C32A C34A | 0.229
C32G A40C | 0.308
C32G A40U | 0.281
C32G A40G | 0.442
C32A U38G | 0.271
C32A U38C | 0.504
C32G C66G | 0.227
C32G C45G | 0.434
C32A C66A | 0.698
C32A C66U | 0.903
C32G C54A | 0.356
C32G C54G | 0.335
